From patent US12697350B2, “Methods and compositions for treating a premature termination codon-mediated disorder” (Tevard Biosciences, Inc., priority 2019, dated 2026)

System: EGFP-R96X-TGA reporter
Assay: 100 nt 5′ leader sequence library with ArgTCA suppressor tRNA #115, EGFP-R96X-TGA reporter, Flp-In-293 cells (FIGS. 28, 29, 32)
Format: cell-based, human
Excerpt: FIG. 27 is a schematic representation of the constructs used to test the impact of a 5′ leader sequence on the read-through of a premature termination codon (PTC) by a suppressor tRNA. Constructs contain (i) a 100 bp 5′ leader sequence derived from genomic DNA located upstream of tRNA genes that are highly expressed in HEK293 cells, (ii) a single copy of either the ArgTCA suppressor tRNA #115 (SEQ ID NO: 18) or the GlnTTA suppressor tRNA #163 (SEQ ID NO: 45), and (iii) an RNA polymerase III termination signal (“Term”).
FIG. 28 is a graph depicting the readthrough activity of the indicated ArgTCA suppressor tRNA expression constructs as measured by flow cytometry in Flp-In-293 cells at ~24 hours post transfection. […]
FIG. 29 is a graph depicting the readthrough activity of the indicated ArgTCA suppressor tRNA expression constructs as measured by flow cytometry in Flp-In-293 cells at ~24 hours post transfection. […]
The leader sequences in combination with the ArgTCA suppressor tRNA #115 (SEQ ID NO: 18) or the GlnTTA suppressor tRNA #163 (SEQ ID NO: 45) were tested for PTC readthrough activity by flow cytometry in cell lines co-transfected with an EGFP-R96X-TGA reporter (SEQ ID NO: 31) for ArgTCA constructs or an EGFP-Q69X-TAA reporter (SEQ ID NO: 175) for GlnTTA constructs.

B1: tRNA-Arg-TCT-2-1-TCA-SUP_no intron (nucleic acid)
chain: GGCTCCGTGGCGCAATGGATAGCGCATTGGACTTCAAATTCAAAGGTTCCGGGTTCGAGTCCCGGCGGAGTCG
modifications: chemistry not fully specified
In the case of B1, the “readthrough activity when combined with the identified leader sequences” value is reported as “showed high readthrough activity”.
